The record followed here is patent US20220119534A1 (DRAGONFLY THERAPEUTICS, published 2022).

The target of assay [1] is T1, mFc-hNKG2D (human, UniProt P26718 73-216).
T1 construct: extracellular domain; Made in house (Dragonfly Tx); the order of tag and ECD follows the name mFc-hNKG2D; also called mFc-tagged human NKG2D; not shown: mouse Fc tag
T1 sequence (looked up): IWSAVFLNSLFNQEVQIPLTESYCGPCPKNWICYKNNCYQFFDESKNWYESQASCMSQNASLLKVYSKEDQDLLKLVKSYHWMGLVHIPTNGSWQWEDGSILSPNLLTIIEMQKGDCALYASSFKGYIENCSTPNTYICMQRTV
The assay is described as follows: SPR Biacore 8K 37 C; mFc-hNKG2D captured on anti-mFc chip, TriNKET as analyte; 1:1 kinetic fit; after 2 wks 40 C at pH 8.0.

In the next assay the target is T2, Human CLEC12A-His (human, UniProt Q5QGZ9 65-265).
T2 construct: Recombinant soluble protein made in house (Dragonfly Tx); The hCLEC12A spot of the HuProt array is written under this molecule as well; also called hCLEC12A-His; hCLEC12A; not shown: His tag
T2 sequence: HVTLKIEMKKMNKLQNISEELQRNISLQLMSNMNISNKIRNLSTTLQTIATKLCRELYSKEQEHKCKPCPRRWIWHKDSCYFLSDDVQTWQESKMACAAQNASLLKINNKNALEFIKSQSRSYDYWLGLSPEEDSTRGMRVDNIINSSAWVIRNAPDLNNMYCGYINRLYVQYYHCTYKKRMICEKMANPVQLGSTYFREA
The assay is described as follows: SPR Biacore 8K 37 C; TriNKET captured on anti-hFc chip, hCLEC12A-His as analyte; 1:1 fit; after 2 wks 40 C at pH 8.0, n=2.

Assay [2] has as its target T1, mFc-hNKG2D. The assay is described as follows: SPR Biacore 8K 37 C; mFc-hNKG2D captured on anti-mFc chip, TriNKET as analyte; steady state fit; after low pH hold, n=3.
In assay [3] the target is T1, mFc-hNKG2D. The assay is described as follows: SPR Biacore 8K 37 C; mFc-hNKG2D captured on anti-mFc chip, TriNKET as analyte; steady state fit; after 2 wks 40 C at pH 8.0.
The target of assay [4] is T3, mFc-hNKG2D (human, UniProt P26718 73-216).
T3 construct: extracellular domain; Recombinant mFc-tagged NKG2D dimer, made in house; also called human NKG2D; not shown: mouse Fc tag
T3 sequence (looked up): T1 sequence (looked up)
The assay is described as follows: SPR, 37 C, mFc-hNKG2D captured, kinetic fit; average.

The target of a further assay is T4, Human CD64 (human, UniProt P12314 16-288, biotinylated).
T4 construct: Bought recombinant receptor; also called hFcγRI; Human CD64 (FcγRI)
T4 sequence (P12314 16-288 limits assumed): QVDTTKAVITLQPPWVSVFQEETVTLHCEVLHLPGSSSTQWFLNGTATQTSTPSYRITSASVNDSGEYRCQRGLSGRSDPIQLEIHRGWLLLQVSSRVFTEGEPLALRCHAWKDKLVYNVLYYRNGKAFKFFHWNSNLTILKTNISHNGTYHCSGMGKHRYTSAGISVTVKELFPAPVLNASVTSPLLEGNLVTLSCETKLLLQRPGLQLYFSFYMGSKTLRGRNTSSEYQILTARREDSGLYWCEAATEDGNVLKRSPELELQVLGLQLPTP
The assay is described as follows: SPR, human CD64 captured; average for AB0192.

In assay [5] the target is T5, human CLEC12A on cells (HL60, PL21, Ba/F3-hCLEC12A) (human, UniProt Q5QGZ9 1-265).
T5 construct: Endogenous on the AML lines HL60 and PL21; brought into mouse Ba/F3 cells by retroviral transduction; The cell line stands under assay; also called CLL-1
T5 sequence: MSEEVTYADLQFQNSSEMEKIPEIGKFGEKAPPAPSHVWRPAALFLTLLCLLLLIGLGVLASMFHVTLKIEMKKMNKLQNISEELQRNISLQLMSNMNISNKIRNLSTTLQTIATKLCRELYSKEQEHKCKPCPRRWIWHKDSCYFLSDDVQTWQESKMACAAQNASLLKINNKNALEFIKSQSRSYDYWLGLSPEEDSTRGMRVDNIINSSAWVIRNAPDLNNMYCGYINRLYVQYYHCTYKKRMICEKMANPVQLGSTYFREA
Kind of assay: flow cytometry, Ba/F3-hCLEC12A cells.

The target in assay [6] is T6, Human CD16a F158 (FcγRIIIa F158) (human, UniProt P08637 17-208, biotinylated).
T6 construct: Bought recombinant receptor; also called hFcγRIIIa F158
T6 sequence (P08637 17-208 limits assumed): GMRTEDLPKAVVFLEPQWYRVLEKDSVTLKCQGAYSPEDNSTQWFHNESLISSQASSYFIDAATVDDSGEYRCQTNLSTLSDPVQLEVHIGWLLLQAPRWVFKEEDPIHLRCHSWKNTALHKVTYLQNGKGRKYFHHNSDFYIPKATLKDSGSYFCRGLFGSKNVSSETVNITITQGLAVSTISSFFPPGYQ
The assay is described as follows: SPR 25C, steady-state fit, average.

In assay [7] the target is T7, Human CD16a V158 (FcγRIIIa V158) (human, UniProt P08637 17-208, biotinylated).
T7 construct: Bought recombinant receptor; also called hCD16aV; hFcγRIIIa V158
T7 sequence (P08637 17-208 F176V limits assumed): as the sequence (P08637 17-208 limits assumed) above, with F160V counted along it
Kind of assay: SPR; after forced oxidation.

In assay [8] the target is T8, mFc-hNKG2D (recombinant mFc-tagged human NKG2D dimer) (human, UniProt P26718 73-216).
T8 construct: extracellular domain; Made in house; not shown: mouse Fc tag
T8 sequence (looked up): T1 sequence (looked up)
Kind of assay: SPR; after forced oxidation.

Assay [9] has as its target T9, Human CLEC12A-His (recombinant, K244 WT) (human, UniProt Q5QGZ9 65-265).
T9 construct: Made in house (Dragonfly Tx); also called hCLEC12A; hCLEC12A-His; not shown: His tag
T9 sequence: T2 sequence
The assay is described as follows: SPR 37C, AB0089 captured on anti-hFc, two-state fit (ka1).

Assay [10] concerns the target T7, Human CD16a V158 (FcγRIIIa V158). Kind of assay: SPR; after low pH hold.
Assay [11] concerns the target T8, mFc-hNKG2D (recombinant mFc-tagged …). Kind of assay: SPR; after low pH hold.
The target of assay [12] is T10, recombinant human CD32a R131 (human, UniProt P12318 36-218, limits assumed, biotinylated).
T10 construct: also called FcγRIIa R131
T10 sequence (looked up): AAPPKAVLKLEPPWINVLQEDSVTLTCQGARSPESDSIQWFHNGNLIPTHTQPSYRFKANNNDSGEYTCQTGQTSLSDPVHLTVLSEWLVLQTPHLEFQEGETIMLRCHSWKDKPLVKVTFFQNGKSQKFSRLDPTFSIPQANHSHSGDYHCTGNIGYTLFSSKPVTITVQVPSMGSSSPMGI
Kind of assay: SPR 25C, steady state.

Numbering of substitutions follows the chain as printed. Names may count otherwise. “And” between values parts separate entries of the source, which are not always exact repeats. Equal entries are not always repeated.

B1: F3'-1602 TriNKET (bispecific antibody, human IgG1, kappa)
chain: QLQLQESGPGLVKPSETLSLTCTVSGFSLTNYGLHWIRQPPGKCLEWIGVIWSGGKTDYNPSLKSRVTISKDTSKNQFSLKLSSVQAADTAVYYCAKYDYDDSLDYWGQGTLVTVSSGGGGSGGGGSGGGGSGGGGSDIQMTQSPSSLSASVGDRVTITCHASQNINFWLSWYQQKPGKAPKLLIYEASNLHTGVPSRFSGSGSGTRFTLTISSLQPEDIATYYCQQSHSYPLTFGCGTKLEIKGSDKTHTCPPCPAPELLGGPSVFLFPPKPKDTLMISRTPEVTCVVVDVSHEDPEVKFNWYVDGVEVHNAKTKPREEQYNSTYRVVSVLTVLHQDWLNGKEYKCKVSNKALPAPIEKTISKAKGQPREPRVYTLPPCRDELTKNQVSLTCLVKGFYPSDIAVEWESNGQPENNYKTTPPVLVSDGSFTLYSKLTVDKSRWQQGNVFSCSVMHEALHNHYTQKSLSLSPG
heavy: EVQLVESGGGLVKPGGSLRLSCAASGFTFSSYSMNWVRQAPGKGLEWVSSISSSSSYIYYADSVKGRFTISRDNAKNSLYLQMNSLRAEDTAVYYCARGAPIGAAAGWFDPWGQGTLVTVSSASTKGPSVFPLAPSSKSTSGGTAALGCLVKDYFPEPVTVSWNSGALTSGVHTFPAVLQSSGLYSLSSVVTVPSSSLGTQTYICNVNHKPSNTKVDKKVEPKSCDKTHTCPPCPAPELLGGPSVFLFPPKPKDTLMISRTPEVTCVVVDVSHEDPEVKFNWYVDGVEVHNAKTKPREEQYNSTYRVVSVLTVLHQDWLNGKEYKCKVSNKALPAPIEKTISKAKGQPREPQVCTLPPSRDELTENQVSLTCLVKGFYPSDIAVEWESNGQPENNYKTTPPVLDSDGSFFLYSWLTVDKSRWQQGNVFSCSVMHEALHNHYTQKSLSLSPG
light: DIQMTQSPSSVSASVGDRVTITCRASQGISSWLAWYQQKPGKAPKLLIYAASSLQSGVPSRFSGSGSGTDFTLTISSLQPEDFATYYCQQGVSFPRTFGGGTKVEIKRTVAAPSVFIFPPSDEQLKSGTASVVCLLNNFYPREAKVQWKVDNALQSGNSQESVTEQDSKDSTYSLSSTLTLSKADYEKHKVYACEVTHQGLSSPVTKSFNRGEC
notes: Trispecific F3' format: CLEC12A scFv-Fc paired with NKG2D Fab-Fc; Stressed and control samples of the stability studies are the same molecule; also called AB0237
Consider B1, for which the Kd with mFc-hNKG2D [1] was 905 nM; with Human CLEC12A-His, 1 nM; with mFc-hNKG2D [2] it was 672 nM; with mFc-hNKG2D [3], 919 nM. The koff was 0.122 s⁻¹ in the assay with mFc-hNKG2D [1] and 0.000845 s⁻¹ with Human CLEC12A-His. In addition, the results for the kon with mFc-hNKG2D [1] and with Human CLEC12A-His were 135000 M⁻¹ s⁻¹ and 835000 M⁻¹ s⁻¹, respectively.

B2: AB0192 TriNKET (other)
chain: EVQLVESGGGVVQPGGSLRLSCAASGFTFNAFGMHWVRQAPGKCLEWVAFISSGSTSIYYANTVKGRFTISRDNSKNTLYLQMNSLRAEDTAVYYCARDGYPTGGAMDYWGQGTSVTVSSGGGGSGGGGSGGGGSGGGGSDIQMTQSPSSLSASVGDRVTITCKASQDIYNYLSWFQQKPGKAPKPLIYRANILVSGVPSRFSGSGSGQDYTFTISSLQPEDIATYYCLQFDAFPFTFGCGTKLEIKGSDKTHTCPPCPAPELLGGPSVFLFPPKPKDTLMISRTPEVTCVVVDVSHEDPEVKFNWYVDGVEVHNAKTKPREEQYNSTYRVVSVLTVLHQDWLNGKEYKCKVSNKALPAPIEKTISKAKGQPREPRVYTLPPCRDELTKNQVSLTCLVKGFYPSDIAVEWESNGQPENNYKTTPPVLVSDGSFTLYSKLTVDKSRWQQGNVFSCSVMHEALHNHYTQKSLSLSPG
heavy: B1 heavy
light: B1 light
notes: the condition stands under assay; also called AB0192 Lot AB0192-005
With B2, in the assay with mFc-hNKG2D [4], binding was characterised by a dissociation constant (Kd) of 779 nM. In the assay with Human CD64, this molecule registered a Kd of 5.2 nM, a koff of 0.00025 s⁻¹ and a kon of 48000 M⁻¹ s⁻¹. Also, in assay [5], it took 1.33 nM to reach a half-maximal effect (EC50) and the “FOB (fold over background)” value was found to be 325 fold.

B3: AB0089 TriNKET (bispecific antibody, human IgG1, kappa)
chain: B1 chain with S53V, K56A, K71V, Y98G, D101G, S103T, R207D, I220F
heavy: B1 heavy
light: B1 light
notes: F3' format heterodimer of three chains; human IgG1 Fc with EW-RVT and Y349C/S354C mutations; also called AB0089 Lot AB0089-002; CLEC12A TriNKET AB0089
As to B3, the Kd in [6] is 1270 nM; in [7], 320 nM; in assay [8] it was 762 nM; in assay [10], 314 nM; in [11] it was 941 nM. The koff was determined as 0.0277 s⁻¹ in assay [7], 0.13 s⁻¹ in assay [8], 0.0274 s⁻¹ in assay [10] and 0.15 s⁻¹ in assay [11]. Also, the kon is 86500 M⁻¹ s⁻¹ in [7]; 171000 M⁻¹ s⁻¹ in [8]; 1.1e+07 M⁻¹ s⁻¹ (2×) and 1e+07 M⁻¹ s⁻¹ (2×) in assay [9]; 87300 M⁻¹ s⁻¹ in assay [10]; 159000 M⁻¹ s⁻¹ in assay [11].

B4: F3'-1602 TriNKET (other)
chain: B1 chain
heavy: B1 heavy
light: B1 light
notes: CLEC12A scFv-Fc, NKG2D A49MI Fab-Fc, human IgG1 Fc; also called AB0237
For B4, the Kd in assay [12] is 1400 nM and 1300 nM and 1700 nM and 1200 nM.
